Data published in patent US20090155236A1, “Peptide sequence for modulation of delta protein kinase c” (NATIONAL INSTITUES OF HEALTH (NIH), U.S. DEPT OF HEALTH AND …, priority 2004, published 2009).

B1: annexin V: human annexin V protein (protein, listed as Homo sapiens)
chain: MAQVLRGTVTDFPGFDERADAETLRKAMKGLGTDEESILTLLTSRSNAQRQEISAAFKTLFGRDLLDDLKSELTGKFEKLIVALMKPSRLYDAYELKHALKGAGTNEKVLTEIIASRTPEELRAIKQVYEEEYGSSLEDDVVGDTSGYYQRMLVVLLQANRDPDAGIDEAQVEQDAQALFQAGELKWGTDEEKFITIFGTRSVSHLRKVFDKYMTISGFQIEETIDRETSGNLEQLLLAVVKSIRSIPAYLAETLYYAMKGAGTDDHTLIRVMVSRSEIDLFNIRKEFRKNFATSKMIKGDTSGDYKKALLLLCGEDD
B2: annexin I: human annexin I protein (protein, listed as Homo sapiens)
chain: MAMVSEFLKQAWFIENEEQEYVQTVKSSKGGPGSAVSPYPTFNPSSDVAALHKAIMVKGVDEATIIDILTKRNNAQRQQIKAAYLQETGKPLDETLKKALTGHLEEVVLALLKTPAQFDADELRAAMKGLGTDEDTLIEILASRTNKEIRDINRVYREELKRDLAKDITSDTSGDFRNALLSLAKGDRSEDFGVNEDLADSDARALYEAGERRKGTDVNVFNTILTTRSYPQLRRVFQKYTKYSKHDMNKVLDLELKGDIEKCLTAIVKCATSKPAFFAEKLHQAMKGVGTRHKALIRIMVSRSEIDMNDIKAFYQKMYGISLCQAILDETKGDYEKILVALCGGN

Columns and labels:
[1] = target: T1, epsilon PKC (Rattus norvegicus, UniProt P09216); assay: Overlay assay, immobilized annexin V with epsilon PKC; format: binding; settings: FIG. 1
T1 sequence (P09216 1-737): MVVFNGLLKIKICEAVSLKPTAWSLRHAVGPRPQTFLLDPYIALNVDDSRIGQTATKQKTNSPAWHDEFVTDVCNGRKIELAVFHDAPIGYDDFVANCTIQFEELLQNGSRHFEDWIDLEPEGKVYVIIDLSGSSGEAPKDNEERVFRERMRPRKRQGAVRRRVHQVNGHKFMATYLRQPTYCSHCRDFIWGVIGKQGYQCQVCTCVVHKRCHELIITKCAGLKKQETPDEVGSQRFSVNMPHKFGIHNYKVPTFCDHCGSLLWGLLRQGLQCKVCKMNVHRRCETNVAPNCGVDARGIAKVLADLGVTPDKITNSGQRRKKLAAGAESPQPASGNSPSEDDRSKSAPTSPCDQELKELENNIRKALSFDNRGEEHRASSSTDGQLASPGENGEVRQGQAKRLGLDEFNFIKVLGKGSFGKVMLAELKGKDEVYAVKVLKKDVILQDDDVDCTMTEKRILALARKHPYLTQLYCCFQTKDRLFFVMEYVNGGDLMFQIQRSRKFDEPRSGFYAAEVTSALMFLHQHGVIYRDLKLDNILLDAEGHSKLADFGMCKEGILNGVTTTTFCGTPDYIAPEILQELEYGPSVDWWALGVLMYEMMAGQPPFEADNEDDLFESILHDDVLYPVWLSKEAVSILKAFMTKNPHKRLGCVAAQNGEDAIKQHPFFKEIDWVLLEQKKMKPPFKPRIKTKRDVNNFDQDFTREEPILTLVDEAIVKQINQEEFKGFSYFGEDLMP
Text: (§1) Initial studies were designed to evaluate binding of annexin V to delta PKC, to certain regions of delta PKC (V1 and V5 regions), and to epsilon PKC. In a study detailed in Example 1, an overlay assay using immobilized annexin V (SEQ ID NO:2) and recombinant full-length delta PKC (SEQ ID NO:3), purified full-length epsilon PKC (SEQ ID NO:6), the recombinant V1 region of delta PKC (“V1 delta PKC”, SEQ ID NO:4), and the recombinant V5 region of delta PKC (“V5 delta PKC”, SEQ ID NO:5) was done. The V1 delta PKC peptide conjugated to […] to form a fusion protein, and the V5 delta PKC peptide was conjugated to glutathione-S-transferase to form a fusion protein.
10 μg of annexin V (SEQ ID NO:2) was separated on 12% SDS-PAGE gel and transferred to nitrocellulose, and then cut into strips. The strips were incubated with blocking buffer (50 mM Tris pH 7.5, 200 mM NaCl, 3% bovine serum albumin, 0.1% PEG20). The strips were then incubated in overlay buffer (50 mM Tris pH 7.5, 200 mM NaCl, 1% PEG20, 12 mM β-mercaptoethanol) in the presence where appropriate of 30 μg crude bacterial cell lysate containing fusion proteins of […] V1 PKC (MBP-δV1), glutathione-S-transferase-delta V5 PKC (GST-δV5), and full length sequences of delta (δPKC, SEQ ID NO:3) or rat purified epsilon (εPKC, SEQ ID NO:6) at 37° C. for 30 min. […]

[2] = target: T2, delta V1 PKC (Rattus norvegicus, UniProt P09215); assay: ELISA binding of annexin V protein to delta V1 PKC; settings: FIG. 2
T2 construct: MBP (printed as 'myelin basic protein'); made in house
Text: In another study, binding of annexin V protein to the V1 regions of epsilon PKC (SEQ ID NO:7) and of delta PKC (SEQ ID NO:4) was examined using ELISA, as described in Example 2. […] Binding of annexin V protein (SEQ ID NO:2) to delta V1 PKC in the absence of calcium was about 55%. In the presence of calcium binding was increased to 100%. […] Thus, annexin V protein binds to full-length PCK and to the V1 and V5 domains of delta PKC in vitro in an isozyme specific manner.
(§2) Annexin V (SEQ ID NO:2) was diluted in 100 mM carbonate buffer (pH=9.6) and 100 μl of the diluted solution is placed in each well of a microtiter plate to give 0.1 μg Annexin V per well. The plate was incubated overnight at 4° C. After the overnight incubation, the plate was blocked for 1 hour at room temperature with 200 μL/well of 1% bovine serum albumin (BSA).
The interaction partners, delta PKC (SEQ ID NO:3), delta V1 PKC (SEQ ID NO:4), and delta V5 PKC (SEQ ID NO:5), were diluted in 100 mM HEPES. For the full length delta PKC, approximately 1.5 μg/well (1:20 dilution of cell lysate) was added. For the delta V1 and delta V5 PKC regions, between about 8000-80 ng/well was added, with an intermediate concentration being sufficient. […]
(§3) A developing reagent was added (100 μL/well): 1 PNPP tablet per 5 mL diluted buffer. 2N NaOH was added and the plate was allowed to develop and then read at 405 nm (single wavelength).

[3] = target: T3, delta PKC (Rattus norvegicus, UniProt P09215); assay: ELISA binding of annexin I and annexin V to delta PKC; settings: FIG. 3
Text: Annexin V binds with higher affinity to delta PKC than does annexin I (SEQ ID NO:9), as was shown in another study presented in FIG. 3. The percent binding of annexin 1 and annexin V to delta PKC (SEQ ID NO:3) in the presence and absence of calcium was investigated using ELISA (Example 2). […] In the presence of calcium the binding increased to 100%. In contrast, annexin I binding to delta PKC was unaffected by the presence of calcium and remained at about 70% both in the absence and presence of calcium.
as §2
Target sequence in this assay (P09215 with tags, fused parts or gaps with the stated changes limits assumed): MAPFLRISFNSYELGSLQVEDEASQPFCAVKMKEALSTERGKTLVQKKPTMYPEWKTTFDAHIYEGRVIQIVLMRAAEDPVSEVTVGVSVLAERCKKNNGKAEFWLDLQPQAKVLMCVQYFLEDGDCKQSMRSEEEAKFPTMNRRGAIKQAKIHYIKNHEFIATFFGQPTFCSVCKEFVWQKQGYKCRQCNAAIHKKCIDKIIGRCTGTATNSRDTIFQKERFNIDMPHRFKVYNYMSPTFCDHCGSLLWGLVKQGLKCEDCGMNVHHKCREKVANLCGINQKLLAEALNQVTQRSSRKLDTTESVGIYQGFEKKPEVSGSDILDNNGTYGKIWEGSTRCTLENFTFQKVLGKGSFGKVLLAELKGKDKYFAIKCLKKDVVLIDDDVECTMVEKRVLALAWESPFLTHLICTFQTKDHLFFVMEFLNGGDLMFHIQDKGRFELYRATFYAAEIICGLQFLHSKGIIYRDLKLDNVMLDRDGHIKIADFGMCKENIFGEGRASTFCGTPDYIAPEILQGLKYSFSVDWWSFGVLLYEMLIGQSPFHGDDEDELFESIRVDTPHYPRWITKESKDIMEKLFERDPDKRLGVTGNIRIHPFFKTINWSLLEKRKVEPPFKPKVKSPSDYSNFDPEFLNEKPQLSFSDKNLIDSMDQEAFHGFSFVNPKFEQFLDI
The interaction partners, delta PKC (SEQ ID NO:3), delta V1 PKC (SEQ ID NO:4), and delta V5 PKC (SEQ ID NO:5), were diluted in 100 mM HEPES. For the full length delta PKC, approximately 1.5 μg/well (1:20 dilution of cell lysate) was added. For the delta V1 and delta V5 PKC regions, between about 8000-80 ng/well was added, with an intermediate concentration being sufficient. Signal to noise increased dramatically at higher concentrations; therefore, 8 μg/well was preferred (this corresponds to 1:40 dilution of cell lysate). 100 μL/well, 1 hour w/shaking. Binding was accelerated at 37° C., however room temperature was also sufficient for binding.
After 1 hour shaking, the plate was washed three times with 100 mM HEPES (200 μL/well×3), with 5 minutes for each wash, with shaking.
Next, a primary antibody in milk (usually 1:1000 dilution) was added, followed by 1 hour at room temperature with shaking. The plate was then washed three times, (200 μL/well×3) with PBS Tween (0.1% Tween), with 5 minutes per wash with shaking.
Then, the secondary antibody diluted in PBS Tween (usually 1:1000) was added, followed by 1 hour at room temperature with shaking. The plate was then washed three times (200 μL/well×3) with PBS Tween, with 5 minutes per wash with shaking.
as §3

[4] = target: T4, delta PKC (Homo sapiens, UniProt Q05655); assay: In vitro kinase assay, histone phosphorylation by delta PKC; format: biochemical; settings: in the presence of PS/DAG, FIG. 4A
T4 construct: purchased Panvera LLC, now Invitrogen Corporation
Description: (§4) In another study, the ability of annexin V to increase the catalytic activity of delta PKC in vitro was evaluated. Full-length, recombinant delta PKC (SEQ ID NO:3) and epsilon PKC (SEQ ID NO:6) were separately incubated in the presence of kinase buffer, ATP, or histone, as described in Example 3. Activators of PKC, phosphatidylserine (PS) and diacylglycerol (DAG), were added along with annexin V, JTV-519, a 1,4 benzothiazepine derivative that activates delta PKC (Inagaki, K. et al., Circulation, 101:797 (2000)), or a mixture of annexin V and JTV-519.
(§5) 200 ng of pure delta PKC or epsilon PKC (Panvera LLC, now Invitrogen Corporation, Carlsbad, Calif.) were incubated in 100 μL kinase buffer (20 mM Tris pH 7.4, 50 mM MgCl2, 0.3 μCi/reaction [γ-^32P]ATP (Amersham Biosciences), 9 μM/reaction ATP (Sigma), 30 μg/reaction myelin basic protein or histone A1 (Sigma); 100 μM lipid vesicle mixture (90% phosphatidylserine (PS): 10% diacylglycerol (DAG)), 1 mM CaCl2, 1 μM JTV519, and/or 20 ng of Annexin V/reaction were added, where applicable. The kinase reaction was stopped by the addition of SDS sample buffer, and extent of histone phosphorylation assessed after separation on 15% SDS-PAGE and transfer onto nitrocellulose membrane by autoradiography.

[5] = target: T5, epsilon PKC (Homo sapiens, UniProt Q02156); assay: In vitro kinase assay, histone phosphorylation by epsilon PKC; format: biochemical; settings: in the presence of PS/DAG, FIG. 4B
T5 construct: purchased Panvera LLC, now Invitrogen Corporation
T5 sequence (Q02156 with tags, fused parts or gaps DEL296-297/G298R): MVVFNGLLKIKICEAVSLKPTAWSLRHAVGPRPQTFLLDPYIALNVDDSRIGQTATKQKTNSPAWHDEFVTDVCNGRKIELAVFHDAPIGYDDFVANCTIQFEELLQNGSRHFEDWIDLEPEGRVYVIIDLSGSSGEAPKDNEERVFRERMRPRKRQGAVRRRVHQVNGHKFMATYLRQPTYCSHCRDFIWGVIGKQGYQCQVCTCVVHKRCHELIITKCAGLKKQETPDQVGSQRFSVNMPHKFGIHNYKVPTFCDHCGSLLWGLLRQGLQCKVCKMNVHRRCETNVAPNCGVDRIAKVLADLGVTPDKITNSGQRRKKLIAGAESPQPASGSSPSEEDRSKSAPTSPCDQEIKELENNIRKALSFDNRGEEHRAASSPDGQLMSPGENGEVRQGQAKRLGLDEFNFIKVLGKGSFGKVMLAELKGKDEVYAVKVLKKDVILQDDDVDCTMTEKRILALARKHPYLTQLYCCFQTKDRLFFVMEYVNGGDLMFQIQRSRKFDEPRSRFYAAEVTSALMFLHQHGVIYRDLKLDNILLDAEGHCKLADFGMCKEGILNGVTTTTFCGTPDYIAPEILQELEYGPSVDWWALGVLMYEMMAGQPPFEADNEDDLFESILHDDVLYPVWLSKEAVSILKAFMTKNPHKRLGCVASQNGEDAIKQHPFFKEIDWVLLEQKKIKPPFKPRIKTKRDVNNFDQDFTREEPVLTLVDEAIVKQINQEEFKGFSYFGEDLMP
Description: as §4, §5

[6] = target: T3, delta PKC; assay: Overlay assay, immobilized annexin V with delta PKC, delta V1 and delta V5 domains; format: binding; design: made in house; host or cells: crude bacterial cell lysate (not clear whether this also covers the full-length protein)
Text: as §1
10 μg of annexin V (SEQ ID NO:2) was separated on 12% SDS-PAGE gel and transferred to nitrocellulose, and then cut into strips. The strips were incubated with blocking buffer (50 mM Tris pH 7.5, 200 mM NaCl, 3% bovine serum albumin, 0.1% PEG20). The strips were then incubated in overlay buffer (50 mM Tris pH 7.5, 200 mM NaCl, 1% PEG20, 12 mM β-mercaptoethanol) in the presence where appropriate of 30 μg crude bacterial cell lysate containing fusion proteins of […] V1 PKC (MBP-δV1), glutathione-S-transferase-delta V5 PKC (GST-δV5), and full length sequences of delta (δPKC, SEQ ID NO:3) or rat purified epsilon (εPKC, SEQ ID NO:6) at 37° C. for 30 min. The strips where then washed with wash buffer (50 mM Tris pH 7.5, 200 mM NaCl, 0.1% PEG20, 12 mM O-mercaptoethanol), and then incubated with fixative (0.2% formaldehyde in PBS) and neutralizing solution (0.2M glycine in PBS) at room temperature 20 min each. After washing with buffer, the strips were probed with antibodies according to the overlay protein, and resulting bands visualized using ECL Western blotting.

T2 sequence (P09215 1-160): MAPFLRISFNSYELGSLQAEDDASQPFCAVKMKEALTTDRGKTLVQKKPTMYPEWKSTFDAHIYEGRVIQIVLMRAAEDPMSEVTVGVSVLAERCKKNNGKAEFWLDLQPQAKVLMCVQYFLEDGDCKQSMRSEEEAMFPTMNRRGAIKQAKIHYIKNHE
T4 sequence (Q05655 whole entry): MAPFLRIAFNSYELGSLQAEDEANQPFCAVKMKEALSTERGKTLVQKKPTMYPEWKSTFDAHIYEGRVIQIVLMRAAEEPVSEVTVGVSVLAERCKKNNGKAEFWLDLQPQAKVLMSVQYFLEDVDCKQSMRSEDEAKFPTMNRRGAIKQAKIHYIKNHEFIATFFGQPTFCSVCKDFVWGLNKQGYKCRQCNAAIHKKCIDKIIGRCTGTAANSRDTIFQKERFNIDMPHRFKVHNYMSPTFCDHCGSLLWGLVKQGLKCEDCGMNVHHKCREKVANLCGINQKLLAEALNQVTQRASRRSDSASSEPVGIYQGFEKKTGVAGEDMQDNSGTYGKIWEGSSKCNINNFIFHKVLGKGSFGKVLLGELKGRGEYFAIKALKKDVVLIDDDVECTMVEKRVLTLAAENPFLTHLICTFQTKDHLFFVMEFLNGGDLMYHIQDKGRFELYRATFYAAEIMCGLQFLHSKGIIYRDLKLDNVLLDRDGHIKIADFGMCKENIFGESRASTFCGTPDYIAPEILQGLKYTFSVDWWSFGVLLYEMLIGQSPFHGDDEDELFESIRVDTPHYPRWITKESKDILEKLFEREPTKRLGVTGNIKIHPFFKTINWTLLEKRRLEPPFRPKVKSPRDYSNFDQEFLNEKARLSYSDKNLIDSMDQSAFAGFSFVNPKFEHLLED

Molecule | binding of epsilon PKC to annexin V [1] | percent binding to delta V1 PKC ([2]; absence of calcium) | percent binding to delta V1 PKC ([2]; presence of calcium) [%] | percent binding to delta PKC ([3]; absence of calcium) | percent binding to delta PKC ([3]; presence of calcium) | catalytic activity of delta PKC (histone phosphorylation) [4] | activity of epsilon PKC (histone phosphorylation) [5] | binding of V5 domain of delta PKC to annexin V ([6]; FIG. 1, GST-delta V5 fusion protein) | binding of V1 domain of delta PKC to annexin V ([6]; FIG. 1, MBP-delta V1 fusion protein) | binding of full-length delta PKC to annexin V ([6]; FIG. 1, full-length delta PKC)
B1 | did not bind | about 55% | 100 | about 75% | 100% | increases the catalytic activity of delta PKC | does not increase the activity of epsilon PKC | bound to annexin V | bound to annexin V | bound to annexin V
B2 | – | – | – | about 70% | about 70% | – | – | – | – | –
